{"source": "paper PMC3418248", "about": "(2012)", "parents": {"B1": {"name": "SepF [B. subtilis] / Halo-ZC (HaloTag fused to the final 69 amino acids of B. subtilis FtsZ) [B. subtilis] (parent complex)", "chain 1": "MSMKNKLKNFFSMEDEEYEYEYIETERESHEEHEQKEKPAYNGNKPAGKQNVVSLQSVQKSSKVVLSEPRVYAEAQEIADHLKNRRAVVVNLQRIQHDQAKRIVDFLSGTVYAIGGDIQRIGSDIFLCTPDNVDVSGTISELISEDEHQRW", "chain 2": "GFIEQEKDVTKPQRPSLNQSIKTHNQSVPKREPKREEPQQQNTVSRHTSQPADDTLDIPTFLRNRNKRG"}}}
{"variants_of": "B1", "test": "pull-down (HaloTag bait), densitometric scanning of Coomassie-stained gels; read off a plot"}
{"variant": "chain 2 GFIEQEKDVTKPQRPSLNQSIKTHNQSVPKREPKREEPQQQNTVSRHTSQPADDTLDAPTFLRNRNKRG", "note": "[chain 2 I58A]", "screen value": "~0.35"}
{"variant": "chain 2 GFIEQEKDVTKPQRPSLNQSIKTHNQSVPKREPKREEPQQQNTVSRHTSQPADATLDIPTFLRNRNKRG", "note": "[chain 2 D54A]", "screen value": "~0.9"}
{"variant": "chain 2 GFIEQEKDVTKPQRPSLNQSIKTHNQSVPKREPKREEPQQQNTVSRHTSQPADDALDIPTFLRNRNKRG", "note": "[chain 2 T55A]", "screen value": "~0.83"}
{"variant": "chain 2 GFIEQEKDVTKPQRPSLNQSIKTHNQSVPKREPKREEPQQQNTVSRHTSQPADDTLDIPTFLRNRNKRA", "note": "[chain 2 G69A]", "screen value": "~0.69"}
{"variant": "chain 2 GFIEQEKDVTKPQRPSLNQSIKTHNQSVPKREPKREEPQQQNTVSRHTSQPADDTLDIPAFLRNRNKRG", "note": "[chain 2 T60A]", "screen value": "~0.66"}
{"variant": "chain 2 GFIEQEKDVTKPQRPSLNQSIKTHNQSVPKREPKREEPQQQNTVSRHTSQPADDTLDIATFLRNRNKRG", "note": "[chain 2 P59A]", "screen value": "~0.04"}
{"variant": "chain 2 GFIEQEKDVTKPQRPSLNQSIKTHNQSVPKREPKREEPQQQNTVSRHTSQPADDTLDIPTFLRNRNKAG", "note": "[chain 2 R68A]", "screen value": "~0.46"}
{"variant": "chain 2 GFIEQEKDVTKPQRPSLNQSIKTHNQSVPKREPKREEPQQQNTVSRHTSQPADDTLDIPTFLRNRNARG", "note": "[chain 2 K67A]", "screen value": "~0.51"}
{"variant": "chain 2 GFIEQEKDVTKPQRPSLNQSIKTHNQSVPKREPKREEPQQQNTVSRHTSQPADDTLDIPTFLRNRAKRG", "note": "[chain 2 N66A]", "screen value": "~0.74"}
{"variant": "chain 2 GFIEQEKDVTKPQRPSLNQSIKTHNQSVPKREPKREEPQQQNTVSRHTSQPADDTLDIPTFLRNANKRG", "note": "[chain 2 R65A]", "screen value": "~0.42"}
{"variant": "chain 2 GFIEQEKDVTKPQRPSLNQSIKTHNQSVPKREPKREEPQQQNTVSRHTSQPADDTLDIPTALRNRNKRG", "note": "[chain 2 F61A]", "screen value": "~0.03"}
{"variant": "chain 2 GFIEQEKDVTKPQRPSLNQSIKTHNQSVPKREPKREEPQQQNTVSRHTSQPADDTLAIPTFLRNRNKRG", "note": "[chain 2 D57A]", "screen value": "~0.53"}
